Experimental findings from patent publication US11319601B2, “Cell based assay” (Medical Diagnostic Laboratories, L.L.C., priority 2017, dated 2022) are described below.

Common to all, as to assay type: cell-based
One assay addresses T1, T862A HER2 receptor (Homo sapiens, UniProt P04626, T862A).
T1 construct: expressed in transfected cells; host or cells: HER2 reporter cells (clone #1)
Briefly: HER2 reporter cells transfected with linear expression cassette of T862A HER2, all-in-one method. From the text:
T862A corresponds to a missense mutation of HER2, which changes Threonine (T) into Alanine (A) at amino acid position of 862. In order to functionally characterize this mutation, PCR-mediated overlapping extension was employed to construct a linear expression cassette of HER2 carrying this mutation. The linear expression cassette of mutant HER2 DNA was transfected into the reporter cells followed by treatment with NRG1 and its inhibitors using the “all-in-one” method. The luciferase reporter activity was measured 24 hours post-transfection.

Another assay concerns the target T2, P780ins HER2 receptor (Homo sapiens, UniProt P04626, INS780GSP).
T2 construct: expressed in transfected cells; host or cells: HER2 reporter cells (clone #1)
Briefly: HER2 reporter cells transfected with linear expression cassette of P780ins HER2, all-in-one method. Particulars: all-in-one method. The text has this:
P780ins corresponds to an insertion mutation of HER2, which adds 3 amino acids (GSP) after the amino acid position of […] (Proline—P). In order to functionally characterize this mutation, PCR-mediated overlapping extension was employed to construct linear expression cassette of HER2 carrying this insertion. The linear expression cassette of mutant HER2 DNA was first transfected into the reporter cells followed by treatment with NRG1 and its inhibitors using the “all-in-one” method. The luciferase reporter activity was measured 24 hours post-transfection.

Assay [1] concerns the target T3, wild-type HER2 receptor (Homo sapiens, UniProt P04626).
T3 construct: expressed in transfected cells
The assay can be described thus: Clone #28 stable 6×JNK-Luc reporter cells with HER3 plasmid and HER2 linear expression cassette. The settings on record: HER3 plasmid and HER2 linear expression DNA, 6 hours. Here is the method:
In the assay of the invention, expression of patient HER2 receptor is in the linear expression cassette format instead of plasmid DNA. Therefore, the clone #28 cells were transfected with HER3 expression plasmid and HER2 linear expression DNA. After 24 hours, the transfected cells were stimulated with a serial dilution of NRG1 for 6 hours. The luciferase reporter activity was measured. […] Therefore, this clone can be used to measure HER2 receptor activity by transfecting linear expression DNA of HER2.
In order to validate that the clone #28 cells was capable to measure the HER2 receptor activity, expression plasmids of HER3 were co-transfected with wild-type, constitutively active or kinase-dead HER2 receptors. […] The luciferase reporter activity of the transfected cells was measured by Nano-Glo® Luciferase Assay (Promega). […] However, no activation of reporter was detected when the cells were transfected with kinase-dead form of HER2 receptor.
In order to validate that the clone #28 reporter cells were capable of measuring the response of HER2 receptor to its inhibitors, these cells were first transfected with the HER2 linear expression DNA and HER3 expression plasmids followed by treatment of HER2 inhibitors for 6 hours in the presence of NRG1. The luciferase reporter activity of the treated cells was measured by Nano-Glo® Luciferase Assay (Promega). […]

The target of assay [2] is T3, wild-type HER2 receptor. The assay can be described thus: 6×JNK-Luc reporter in HEK293 DKO #27 cells transfected with HER2 and HER3 expression plasmids. The settings on record: 6 hours. Here is the method: In example 4, the generation double knockout cells (HEK293 DKO #27) of HER1 and HER2 receptors was described. No protein expression of HER1 and HER2 receptors was detected by immunoblot assays. In order to characterize whether these cells are desirable for use in the assay of the invention, 6×JNK-Luc was co-transfected with expression plasmids of HER3 and wild-type HER2 receptors. After 24 hours, the transfected cells were treated with a serial dilution of NRG1 (HER3 receptor ligand) for 6 hours. The luciferase reporter activity of the transfected cells was measured by Nano-Glo® Luciferase Assay (Promega).
In order to validate the requirement of HER2 receptor in the activation of 6×JNK-Luc reporter in response to NRG1 treatment, the DKO #27 cells were transfected with the wild-type HER2 and HER3 expression plasmids followed by treatment of HER2 inhibitors for 6 hours. The luciferase reporter activity of the treated cells was measured by Nano-Glo® Luciferase Assay (Promega). […]
In order to validate that this 6×JNK-Luc reporters has the capacity of measuring HER2 receptor activity, the reporters were co-transfected with expression plasmids of HER3 and wild-type, constitutively active or kinase-dead HER2 receptors into the DKO #27 cells. […] The luciferase reporter activity of the transfected cells was measured by Nano-Glo® Luciferase Assay (Promega). […]

Entries after “also recorded” stand apart in the source; their conditions may differ.

Consider “NRG1: neuregulin-1, HER3 receptor ligand”, for which the “response of mutant HER2 reporter activity to ligand” value in the assay with T862A HER2 receptor was “dose-dependent manner”; in the assay with P780ins HER2 receptor it was “independent”. The “reporter activation by ligand” value with wild-type HER2 receptor [1] is “dose dependent manner; also recorded: activated”. In the assay with wild-type HER2 receptor [2], the “6×JNK-Luc reporter activation by ligand” value is “dose dependent activation; also recorded: activated”.
